The data set has as its system MS2 coat protein. The data set can be described thus: apparent KD of MS2 coat protein; designed switch direction (-1 OFF switch, 1 ON switch): -1; higher = weaker reporter binding. Summed up:
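RNA switches sharing common flanks were transcribed by stalled E. coli RNA polymerase on Illumina chips. A doubling series of SNAP-549-labelled MS2 coat protein, from 0.7 or 1.5 nM to 3 µM, was applied in Tris-HCl pH 7.5 buffer with KCl, MgCl2, BSA, DTT, tRNA and Tween-20. Each step lasted 0.8–1.5 h at the bottom of the series and 10–20 min at the top. Normalised cluster fluorescence was curve-fitted, giving apparent KD as the per-design median over clusters.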

The mark [1] stands for this setting: input ligand: microRNA oligo, concentration not stated.
Where [2] appears, read: Eterna round: R95, input ligand: FMN 200 uM.
[3] abbreviates: Eterna round: R95, input ligand: microRNA oligo, concentration not stated.
[4] abbreviates: Eterna round: R95, input ligand: none.

As for “CGUCAGAUCGCAGGAUAUGUUAGAUGAGCACAGAAUGUCCAGACCACAUGAGGAUCACCCAUGUAACAGAAGGGCGGUCUACGG [Eternabot solution 29] (Eterna round: R96, puzzle: Exclusion NG 2)”, the “apparent KD of MS2 coat protein” value is, setting by setting: (input ligand: FMN 200 uM) 79.3 nM; under setting [1], 195 nM; (input ligand: none) 95.6 nM.

As for “CGUCAGUCAGGAUAUGCAUACGUAGACAUGAGGAUCACCCAUGUGACGUGGGACUGGUGUGUAGAAGGGACGAACA [EX5 #78] (Eterna round: R97, puzzle: Exclusion 5)”, the “apparent KD of MS2 coat protein” value (input ligand: FMN 200 uM) amounted to 23.1 nM and the “apparent KD of MS2 coat protein” value (input ligand: none) was 21.3 nM.

Take “CGUCCUGAAGUGAGGAUAUUGUCUCGGAUACGAAACAAGAAGGCACAUGAGGAUCACCCAUGUAAACAGGACGA [Malc #30 mod 11] (puzzle: Brourd's mod of Exclusion 4)”: the “apparent KD of MS2 coat protein” value is, setting by setting: under setting [2], 15.3 nM; under setting [3], 15.6 nM; under setting [4], 16.9 nM.

On to “CGUCUGUUAGGAUAUGACCCGCGUACCGUGUCGAGCCGGGUUCAGAAGGAACAUGAGGAUCACCCAUGUGAGAA [Eternabot (L1) Solution 12] (Eterna round: R97, puzzle: Exclusion 4)”, for which the “apparent KD of MS2 coat protein” value by setting is: (input ligand: FMN 200 uM) 163 nM; (input ligand: none) 27.3 nM.

On to “CGUGACUCAGGAUAUCUAUAGUGUCACAUGAGGAUCACCCAUGUCCAGCGAAAGCUGGAGGGAGAAGGGAGUCACG [Fiskers Ex 5 - 43] (Eterna round: R96, puzzle: Exclusion 5)”, for which the “apparent KD of MS2 coat protein” value (input ligand: FMN 200 uM) was found to be 43.1 nM, the “apparent KD of MS2 coat protein” value under setting [1] is 71.5 nM and the “apparent KD of MS2 coat protein” value (input ligand: none) was determined as 87.7 nM.

For “CGUGACUCAGGAUAUCUAUAGUGUCACAUGAGGAUCACCCAUGUCCAGCGAAAGCUGGAGGGAGAAGGGAGUCACG [Fiskers Ex 5 - 43] (puzzle: Exclusion 5)”, the “apparent KD of MS2 coat protein” value under setting [3] turned out to be 90.5 nM.

With “CGUGACUCAGGAUAUCUAUGAUAUCACAUGAGGAUCACCCAUGUCCAGCAAUAGCUGGAGGGAGAAGGGAGUCACG [Fiskers Ex 5 - 41] (puzzle: Exclusion 5)”, the “apparent KD of MS2 coat protein” value under setting [2] worked out at 84 nM, the “apparent KD of MS2 coat protein” value under setting [3] stood at 54.3 nM and the “apparent KD of MS2 coat protein” value under setting [4] was determined as 166 nM.

For the sequence “CGUGACUGAGGAUAUCUAUAAUAUCACAUGAGGAUCACCCAUGUCCAGCGAAAGCUGGAGGGAGAAGGCAGUCACG [Fiskers Ex 5 - 29] (puzzle: Exclusion 5)”, the “apparent KD of MS2 coat protein” value by setting is: under setting [2], 53 nM; under setting [3], 127 nM; under setting [4], 75.3 nM.

Regarding “CGUGCGUAUGUGAGGAUAUGCUGGUCCUUGGAUCGGCAGAAGGCACAUGAGGAUCACCCAUGUGGUGUCGUGCA [salish99_Bmod_ex4_090] (puzzle: Brourd's mod of Exclusion 4)”, under setting [3], the “apparent KD of MS2 coat protein” value turned out to be 190 nM.

On to “CGUGUCUUUCACGUGAGUGGUGGGUGCAACAGGUGGGAAACAUGAGGAUCACCCAUGUCCUCAUUUGCUCGUCUUAU [Grok-var2-02] (puzzle: Sensor v3, turn-off variant 2)”, for which the “apparent KD of MS2 coat protein” value was 686 nM under setting [2], 457 nM under setting [3] and 572 nM under setting [4].

Turning to “CGUUGGCGAGGAUAUACAUGAGGAUCACCCAUGUGAGAGAAAAAAGUGAGGAAGAAAAGUAGAAGGCGCUGACC [salish99_ex3_r3_049] (puzzle: Exclusion 3)”, the “apparent KD of MS2 coat protein” value runs as follows: under setting [2], 110 nM; under setting [3], 42.7 nM; under setting [4], 45.9 nM.

In the case of “CUAAAUCAUGUAGGAUAUGCGUGGCGAAGCUAUGCAGAAGGACAUGAGGAUCACCCAUGUGCUUCCGUCUGAGAACAGACGGAA [Mat - Exclusion NG 1 - Mod of JL - D26] (Eterna round: R96, puzzle: Exclusion NG 1)”, the “apparent KD of MS2 coat protein” value by setting is: (input ligand: FMN 200 uM) 115 nM; under setting [1], 277 nM; (input ligand: none) 251 nM.

For “CUAACAUGCUGGUGAUCAUACAUGAGGAUCACCCAUGUAACAAGCUUUUUGUUCGUCUUAUAAGAUUACUAGUAUGU [Stov1/10-B3] (Eterna round: R97, puzzle: Sensor, turn-off variant 1)”, the “apparent KD of MS2 coat protein” value is 38.8 nM (input ligand: FMN 200 uM) and 52.3 nM (input ligand: none).

For “CUAGAGCGAGGAUAUACAUGAGGAUCACCCAUGUGGCAGCCGGGUAGGAGUGACGUCGGUAGAAGGCGCACCCG [Anrate] (puzzle: Exclusion 3)”, the “apparent KD of MS2 coat protein” value runs as follows: under setting [2], 27.5 nM; under setting [3], 33.2 nM; under setting [4], 37.9 nM.

Regarding “CUAGAUCUUCGGAUCUAGUACAUGAGGAUCACCCAUGUUACGAGUUGAUUUUCAUACAAGCUUUUUGCUCGUCUUAU [Sensor v3 - Turn-off variant 1 - 28] (puzzle: Sensor v3, turn-off variant 1)”, the “apparent KD of MS2 coat protein” value under setting [2] worked out at 134 nM, the “apparent KD of MS2 coat protein” value under setting [3] turned out to be 84.4 nM and the “apparent KD of MS2 coat protein” value under setting [4] is 153 nM.

“CUAGCGAAUGUAGGAUAUCGGACUGUUUCAGUCUGAGAAGGACAUGAGGAUCACCCAUGUAUUGCUACGUGAGUAGCUCGCUAG [JL ENG1 3.92] (Eterna round: R96, puzzle: Exclusion NG 1)”: the “apparent KD of MS2 coat protein” value was determined as 32.4 nM (input ligand: FMN 200 uM), 13.7 nM under setting [1] and 18 nM (input ligand: none).

Take “CUAGCGAGUGUAGGAUAUCGGACUGUUUCAGUCUGAGAAGGACAUGAGGAUCACCCAUGUGAAGCUACGUGAGUAGCACGCUAG [JL ENG1 3.87] (Eterna round: R96, puzzle: Exclusion NG 1)”: the “apparent KD of MS2 coat protein” value reads like this: (input ligand: FMN 200 uM) 74.5 nM; under setting [1], 18.3 nM; (input ligand: none) 24.5 nM.

For the sequence “CUAGCGAUUGUAGGAUAUCGAUGUGUUUCACAUCGAGAAGGACAUGAGGAUCACCCAUGUGAAGGAUCGUGAGAUCCACGCUAG [JL ENG1 3.78] (Eterna round: R96, puzzle: Exclusion NG 1)”, the “apparent KD of MS2 coat protein” value amounted to 76.6 nM (input ligand: FMN 200 uM), 17.5 nM under setting [1] and 19.7 nM (input ligand: none).

Turning to “CUAGCUUCGGCUAGUACAAGCUUUUUGCUCGUCUUAUUAACAUGAGGAUCACCCAUGUUAAUGAGACCUCAUGUAUU [Sensor v3 - turn-off variant 2 - 9] (Eterna round: R96, puzzle: Sensor v3, turn-off variant 2)”, the “apparent KD of MS2 coat protein” value is, setting by setting: (input ligand: FMN 200 uM) 11.5 nM; under setting [1], 12.2 nM; (input ligand: none) 13.6 nM.

“CUAGCUUCGGCUAGUACAAGCUUUUUGCUCGUCUUAUUAACAUGAGGAUCACCCAUGUUAAUGAGACCUCAUGUAUU [Sensor v3 - turn-off variant 2 - 9] (puzzle: Sensor v3, turn-off variant 2)”: the “apparent KD of MS2 coat protein” value is, setting by setting: under setting [2], 12.7 nM; under setting [3], 15.2 nM; under setting [4], 11.1 nM.

Turning to “CUAGGGCACAUUUAAACGCCCUAACAUGAGGAUCACCCAUGUCAGGAUAUGUAGGCAAAGACCCUACAGAAGGGACAUGUCCUA [Recebe] (Eterna round: R96, puzzle: Exclusion NG 3)”, the “apparent KD of MS2 coat protein” value is, setting by setting: (input ligand: FMN 200 uM) 303 nM; under setting [1], 42.9 nM; (input ligand: none) 52.9 nM.

For the sequence “CUAUCAAGCAAGGAUAUGCAAAUAAUUAUUUAUGCAGAAGGUGCAACAUGAGGAUCACCCAUGUUUCUGGGUUU [JR_E6_Sub048] (puzzle: Exclusion 6)”, under setting [3], the “apparent KD of MS2 coat protein” value came out at 44.9 nM.

As to “CUAUCAAGCAAGGAUAUGCAAUUUAUUAUUUAUGCAGAAGGUGCAACAUGAGGAUCACCCAUGUUUCUGGGUUU [JR_E6_Sub047] (puzzle: Exclusion 6)”, the “apparent KD of MS2 coat protein” value under setting [3] was found to be 39.5 nM.

On to “CUAUCUAGAGGAUAUACGAGAUCGAAAGAUCGGCGAUCCCUACAUGAGGAUCACCCAUGUAGAAGGCUAGAUAG [Mod 16 - Jieux - Exclusion 2] (Eterna round: R97, puzzle: Exclusion 2)”, for which the “apparent KD of MS2 coat protein” value runs as follows: (input ligand: FMN 200 uM) 99.5 nM; (input ligand: none) 18.6 nM.

For “CUAUGUUAGCAGGAUAUGCCAUUAUUCCUUUACGCAGAAGGGCUUACAUGAGGAUCACCCAUGUUACAUUUCAU [JR_E6_Sub084] (puzzle: Exclusion 6)”, the “apparent KD of MS2 coat protein” value under setting [3] is 15.7 nM.

Consider “CUAUUACGAGGAUAUGAUUUAAAUAACAUGAGGAUCACCCAUGUUUUUACGUUAUUUUAUUUAGAAGGCGUAUUGU [JR_E5_Sub028] (puzzle: Exclusion 5)”, for which the “apparent KD of MS2 coat protein” value was found to be 34.1 nM under setting [2], 53.7 nM under setting [3] and 61.5 nM under setting [4].

For “CUCAUGUGAGGAUAUCAGUAGUAAAAAAAUAAAAUUACUACUGAGAAGGCACAUGAGGAUCACCCAUGUGUCUU [EX4 331: Super Stable 31] (Eterna round: R96, puzzle: Exclusion 4)”, under setting [1], the “apparent KD of MS2 coat protein” value came out at 13.3 nM.

On to “CUCAUGUGAGGAUAUGUGAUCAACCUUCUAUAUAGAUGAUGACAGAAGGCACAUGAGGAUCACCCAUGUAGAUC [Ex4 - 3 - 19] (puzzle: Exclusion 4)”, for which the “apparent KD of MS2 coat protein” value under setting [3] came to 37.9 nM.

For the sequence “CUCCGGCGUGUAGGAUAUGGAUCCGAUUAGGAUCCAGAAGGACAUGAGGAUCACCCAUGUACAUGUCGGCGGUCGUCACCGGGC [salish99_ExNG1_r04_209] (Eterna round: R96, puzzle: Exclusion NG 1)”, the “apparent KD of MS2 coat protein” value runs as follows: (input ligand: FMN 200 uM) 34 nM; under setting [1], 14.4 nM; (input ligand: none) 20.1 nM.

For the sequence “CUCGUGUGAGGAUAUCGAUUAUGGAAGUCUAGAUCCAUACGCGAGAAGGCACAUGAGGAUCACCCAUGUAAUGG [jl-ex4-4.35 ViennaUCT mod] (Eterna round: R97, puzzle: Exclusion 4)”, the “apparent KD of MS2 coat protein” value runs as follows: (input ligand: FMN 200 uM) 68.3 nM; (input ligand: none) 176 nM.

Regarding “CUCGUGUGAGGAUAUUCACACCCGUUGCAGCGACGGACAAAGAAGAAGGCACAUGAGGAUCACCCAUGUAAAGA [Onan] (Eterna round: R97, puzzle: Exclusion 4)”, the “apparent KD of MS2 coat protein” value was determined as 97.8 nM (input ligand: FMN 200 uM) and 192 nM (input ligand: none).
